Measured values reported in US20140087995A1 (published 2014).
Changes are numbered by the printed parent chain. Where two headings read alike, the source gives them in different places. Numbered stars: 1 amine (or outer) side, 2 acyl side, 3 side chain; on linkers, the order of the positions; unused ones are H or OH. Bridge positions count the residues as written; N and C are the ends. Side chains are listed from the residue outwards. Ends that are not written are not given here. * marks the point of attachment. C20 diacid = O=C(O)CCCCCCCCCCCCCCCCCCC(=O)*; γGlu = O=C(O)[C@H](CCC(=O)[*:2])N[*:1]; AEEA = NCCOCCOCC(=O)O

B1: N^α1-[(4S)-4-carboxy-4-(19-carboxynonadecanoylamino)butanoyl]-[Glu14,Arg17,Pro21,Pro27]-h-amylin (peptide)
peptide: KCNTATCATQRLAEFLRHSSPNFGAIPSSTNVGSNTY
modifications: C20 diacid-gGlu on the alpha amino group of the N-terminal residue; disulfide bridge Cys2-Cys7; C-terminal amide
notes: also called compound 9
B2: N^α1-[2-[2-[2-[[2-[2-[2-[[(4S)-4-carboxy-4-(19-carboxynonadecanoylamino)butanoyl]amino]ethoxy]ethoxy]acetyl]amino]ethoxy]ethoxy]acetyl]-[Arg17,Pro21,Pro27]-h-am … (peptide)
peptide: B1 peptide with E14N
modifications: C20 diacid-gGlu-2xOEG on the alpha amino group of the N-terminal residue; disulfide bridge Cys2-Cys7; C-terminal amide
notes: also called compound 24
B3: N^-1-[(4S)-4-carboxy-4-(19-carboxynonadecanoylamino)butanoyl]-Gly[Arg1,Arg17,Pro21,Pro27,His35]-h-amylin (peptide)
peptide: {C20 diacid-γGlu}-GRCNTATCATQRLANFLRHSSPNFGAIPSSTNVGSHTY-NH2
modifications: disulfide 3-8
SMILES: CC[C@H](C)[C@H](NC(=O)[C@H](C)NC(=O)CNC(=O)[C@H](Cc1ccccc1)NC(=O)[C@H](CC(N)=O)NC(=O)[C@@H]1CCCN1C(=O)[C@H](CO)NC(=O)[C@H](CO)NC(=O)[C@H](Cc1c[nH]cn1)NC(=O)[C@H](CCCNC(=N)N)NC(=O)[C@H](CC(C)C)NC(=O)[C@H](Cc1ccccc1)NC(=O)[C@H](CC(N)=O)NC(=O)[C@H](C)NC(=O)[C@H](CC(C)C)NC(=O)[C@H](CCCNC(=N)N)NC(=O)[C@H](CCC(N)=O)NC(=O)[C@@H](NC(=O)[C@H](C)NC(=O)[C@@H]1CSSC[C@H](NC(=O)[C@H](CCCNC(=N)N)NC(=O)CNC(=O)CC[C@H](NC(=O)CCCCCCCCCCCCCCCCCCC(=O)O)C(=O)O)C(=O)N[C@@H](CC(N)=O)C(=O)N[C@@H]([C@@H](C)O)C(=O)N[C@@H](C)C(=O)N[C@@H]([C@@H](C)O)C(=O)N1)[C@@H](C)O)C(=O)N1CCC[C@H]1C(=O)N[C@@H](CO)C(=O)N[C@@H](CO)C(=O)N[C@H](C(=O)N[C@@H](CC(N)=O)C(=O)N[C@H](C(=O)NCC(=O)N[C@@H](CO)C(=O)N[C@@H](Cc1c[nH]cn1)C(=O)N[C@H](C(=O)N[C@@H](Cc1ccc(O)cc1)C(N)=O)[C@@H](C)O)C(C)C)[C@@H](C)O
notes: Synthetic acylated analogue of human amylin, extended by Gly at the N-terminus; also called compound 47
B4: N^-1-[(4S)-4-carboxy-4-(19-carboxynonadecanoylamino)butanoyl]-Gly[Arg1,Arg17,Pro21,Pro27]-h-amylin (peptide)
peptide: {C20 diacid-γGlu}-GRCNTATCATQRLANFLRHSSPNFGAIPSSTNVGSNTY-NH2
modifications: disulfide 3-8
SMILES: CC[C@H](C)[C@H](NC(=O)[C@H](C)NC(=O)CNC(=O)[C@H](Cc1ccccc1)NC(=O)[C@H](CC(N)=O)NC(=O)[C@@H]1CCCN1C(=O)[C@H](CO)NC(=O)[C@H](CO)NC(=O)[C@H](Cc1c[nH]cn1)NC(=O)[C@H](CCCNC(=N)N)NC(=O)[C@H](CC(C)C)NC(=O)[C@H](Cc1ccccc1)NC(=O)[C@H](CC(N)=O)NC(=O)[C@H](C)NC(=O)[C@H](CC(C)C)NC(=O)[C@H](CCCNC(=N)N)NC(=O)[C@H](CCC(N)=O)NC(=O)[C@@H](NC(=O)[C@H](C)NC(=O)[C@@H]1CSSC[C@H](NC(=O)[C@H](CCCNC(=N)N)NC(=O)CNC(=O)CC[C@H](NC(=O)CCCCCCCCCCCCCCCCCCC(=O)O)C(=O)O)C(=O)N[C@@H](CC(N)=O)C(=O)N[C@@H]([C@@H](C)O)C(=O)N[C@@H](C)C(=O)N[C@@H]([C@@H](C)O)C(=O)N1)[C@@H](C)O)C(=O)N1CCC[C@H]1C(=O)N[C@@H](CO)C(=O)N[C@@H](CO)C(=O)N[C@H](C(=O)N[C@@H](CC(N)=O)C(=O)N[C@H](C(=O)NCC(=O)N[C@@H](CO)C(=O)N[C@@H](CC(N)=O)C(=O)N[C@H](C(=O)N[C@@H](Cc1ccc(O)cc1)C(N)=O)[C@@H](C)O)C(C)C)[C@@H](C)O
notes: Synthetic acylated analogue of human amylin, extended by Gly at the N-terminus; also called compound 46
B5: N^α1 N^α1-[(4S)-4-carboxy-4-[[(4S)-4-carboxy-4-(19-carboxynonadecanoylamino)butanoyl]amino]butanoyl]-[Glu14,Arg17,Pro21,Pro27]-h-amylin (peptide)
peptide: {C20 diacid-γGlu-γGlu}-KCNTATCATQRLAEFLRHSSPNFGAIPSSTNVGSNTY-NH2
modifications: disulfide 2-7 (inferred)
notes: analogue of human amylin; the name is printed with N^α1 twice; also called compound 15
B6: N^ε-[2-[2-[2-[[(4S)-4-carboxy-4-(19-carboxynonadecanoylamino)butanoyl]amino]ethoxy]ethoxy]acetyl]Lys[Arg1,Arg17,Pro21,Pro27,His35]-h-amylin (peptide)
peptide: K([AEEA-γGlu-C20 diacid])RCNTATCATQRLANFLRHSSPNFGAIPSSTNVGSHTY-NH2
modifications: disulfide 3-8; N-terminus assumed
SMILES: CC[C@H](C)[C@H](NC(=O)[C@H](C)NC(=O)CNC(=O)[C@H](Cc1ccccc1)NC(=O)[C@H](CC(N)=O)NC(=O)[C@@H]1CCCN1C(=O)[C@H](CO)NC(=O)[C@H](CO)NC(=O)[C@H](Cc1c[nH]cn1)NC(=O)[C@H](CCCNC(=N)N)NC(=O)[C@H](CC(C)C)NC(=O)[C@H](Cc1ccccc1)NC(=O)[C@H](CC(N)=O)NC(=O)[C@H](C)NC(=O)[C@H](CC(C)C)NC(=O)[C@H](CCCNC(=N)N)NC(=O)[C@H](CCC(N)=O)NC(=O)[C@@H](NC(=O)[C@H](C)NC(=O)[C@@H]1CSSC[C@H](NC(=O)[C@H](CCCNC(=N)N)NC(=O)[C@@H](N)CCCCNC(=O)COCCOCCNC(=O)CC[C@H](NC(=O)CCCCCCCCCCCCCCCCCCC(=O)O)C(=O)O)C(=O)N[C@@H](CC(N)=O)C(=O)N[C@@H]([C@@H](C)O)C(=O)N[C@@H](C)C(=O)N[C@@H]([C@@H](C)O)C(=O)N1)[C@@H](C)O)C(=O)N1CCC[C@H]1C(=O)N[C@@H](CO)C(=O)N[C@@H](CO)C(=O)N[C@H](C(=O)N[C@@H](CC(N)=O)C(=O)N[C@H](C(=O)NCC(=O)N[C@@H](CO)C(=O)N[C@@H](Cc1c[nH]cn1)C(=O)N[C@H](C(=O)N[C@@H](Cc1ccc(O)cc1)C(N)=O)[C@@H](C)O)C(C)C)[C@@H](C)O
notes: Synthetic acylated analogue of human amylin, extended by Lys at the N-terminus; also called compound 45
B7: N^ε1-[(4S)-4-carboxy-4-(19-carboxynonadecanoylamino)butanoyl]-[Arg17,Pro21,Pro27]-h-amylin (peptide)
peptide: K([γGlu-C20 diacid])CNTATCATQRLANFLRHSSPNFGAIPSSTNVGSNTY-NH2
modifications: disulfide 2-7; N-terminus assumed
SMILES: CC[C@H](C)[C@H](NC(=O)[C@H](C)NC(=O)CNC(=O)[C@H](Cc1ccccc1)NC(=O)[C@H](CC(N)=O)NC(=O)[C@@H]1CCCN1C(=O)[C@H](CO)NC(=O)[C@H](CO)NC(=O)[C@H](Cc1c[nH]cn1)NC(=O)[C@H](CCCNC(=N)N)NC(=O)[C@H](CC(C)C)NC(=O)[C@H](Cc1ccccc1)NC(=O)[C@H](CC(N)=O)NC(=O)[C@H](C)NC(=O)[C@H](CC(C)C)NC(=O)[C@H](CCCNC(=N)N)NC(=O)[C@H](CCC(N)=O)NC(=O)[C@@H](NC(=O)[C@H](C)NC(=O)[C@@H]1CSSC[C@H](NC(=O)[C@@H](N)CCCCNC(=O)CC[C@H](NC(=O)CCCCCCCCCCCCCCCCCCC(=O)O)C(=O)O)C(=O)N[C@@H](CC(N)=O)C(=O)N[C@@H]([C@@H](C)O)C(=O)N[C@@H](C)C(=O)N[C@@H]([C@@H](C)O)C(=O)N1)[C@@H](C)O)C(=O)N1CCC[C@H]1C(=O)N[C@@H](CO)C(=O)N[C@@H](CO)C(=O)N[C@H](C(=O)N[C@@H](CC(N)=O)C(=O)N[C@H](C(=O)NCC(=O)N[C@@H](CO)C(=O)N[C@@H](CC(N)=O)C(=O)N[C@H](C(=O)N[C@@H](Cc1ccc(O)cc1)C(N)=O)[C@@H](C)O)C(C)C)[C@@H](C)O
notes: Synthetic acylated analogue of human amylin; also called compound 48

Experiments:
[1] = biological target: T1, human amylin receptor (amylin 3(a) receptor: human calcitonin receptor with RAMP-3) (human, UniProt P30988 25-474; O60896 24-148); assay: cell-based or functional assay
T1 sequence (looked up) 1: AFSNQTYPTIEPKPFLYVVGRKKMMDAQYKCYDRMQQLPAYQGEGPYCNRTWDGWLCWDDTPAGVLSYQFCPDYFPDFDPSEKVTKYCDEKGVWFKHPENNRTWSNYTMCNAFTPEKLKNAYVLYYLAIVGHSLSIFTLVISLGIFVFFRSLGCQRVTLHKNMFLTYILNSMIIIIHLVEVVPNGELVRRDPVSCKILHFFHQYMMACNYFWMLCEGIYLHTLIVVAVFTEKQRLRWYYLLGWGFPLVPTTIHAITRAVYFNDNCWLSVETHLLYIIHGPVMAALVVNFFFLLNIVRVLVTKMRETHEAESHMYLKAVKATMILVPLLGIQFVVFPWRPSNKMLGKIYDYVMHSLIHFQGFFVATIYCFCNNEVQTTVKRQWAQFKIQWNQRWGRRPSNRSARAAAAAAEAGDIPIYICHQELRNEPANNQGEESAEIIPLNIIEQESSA
T1 sequence (looked up) 2: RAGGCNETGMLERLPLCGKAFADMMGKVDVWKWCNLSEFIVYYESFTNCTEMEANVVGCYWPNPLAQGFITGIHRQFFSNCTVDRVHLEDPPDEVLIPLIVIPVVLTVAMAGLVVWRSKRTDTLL

[2] = biological target: T2, human calcitonin receptor (human, UniProt P30988 25-474); assay: cell-based or functional assay
T2 sequence (looked up): T1 sequence (looked up) 1

[3] = biological target: T3, human amylin receptor (amylin 3(a) receptor: human calcitonin receptor plus RAMP-3) (human, UniProt P30988 25-474; O60896 24-148, limits assumed); assay: cell-based or functional assay
T3 sequence (looked up) 1: T1 sequence (looked up) 1
T3 sequence (looked up) 2: T1 sequence (looked up) 2

[4] = biological target: T4, human calcitonin receptor (human, UniProt P30988 25-474); assay: cell-based or functional assay; remark: listed apart in the source
T4 sequence (looked up): T1 sequence (looked up) 1

[5] = biological target: T5, human calcitonin receptor (human, UniProt P30988 25-474); assay: IC50 on human calcitonin receptor divided by IC50 on human amylin receptor (SPA competition)
T5 construct: whole, on cells; membranes of stably transfected BHK cells (Assay VII); also called hCTR; hCT
T5 sequence (looked up): T1 sequence (looked up) 1
Experimental: The resulting pellet was resuspended, homogenized and centrifuged (20.000 rpm, 15 min) in a buffer containing 20 mM Na-HEPES and 0.1 mM EDTA (pH 7.4, buffer 2). The resulting pellet was resuspended in buffer 2 and protein concentration was measured (BCA protein Assay, Pierce). The homogenate was kept cold during the whole procedure. The membranes were kept at −80° C. until use. The assay was performed in a 384 well Optiplate (PerkinElmer) in a total volume of 40 ul. Membranes were mixed with SPA beads. Final concentration of membranes 35 ng/μL final and SPA beads was 0.05 mg/well. Test-compounds were dissolved in DMSO and further diluted in assay buffer (50 mM Hepes, pH 7.4, 1 mM CaCl2, 5 mM MgCl₂, 0.1% OA and 0.02% Tween20). […] The final mixture was incubated with shaking at 400 rpm for 120 min at 25° C. prior to centrifugation (1500 rpm, 10 min). Samples were analyzed on TopCounter™ (Packard). The IC₅₀ was calculated using (one site binding competition analysis) GraphPad Prism5 as a measure of receptor affinity.
Membranes were prepared in the following way; the cells were rinsed with PBS and incubated with Versene for approximately 5 min before harvesting. The cells were flushed with PBS and the cell-suspension was centrifuged for 5 min at 1000 rpm. Cells were homogenized (Ultrathurrax) in a buffer containing 20 mM Na-HEPES and 10 mM EDTA (pH 7.4) and centrifuged at 20.000 rpm for 15 min. The resulting pellet was resuspended, homogenized and centrifuged (20.000 rpm, 15 min) in a buffer containing 20 mM Na-HEPES and 0.1 mM EDTA (pH 7.4, buffer 2). The resulting pellet was resuspended in buffer 2 and protein concentration was measured (BCA protein Assay, Pierce). The homogenate was kept cold during the whole procedure. The membranes were kept at −80° C. until use. Assay was performed in a 384 well Optiplate (PerkinElmer) in a total volume of 40 ul. Membranes were mixed with SPA beads.

Binder	hAmylin-R funct. EC50 [1] [nM]	Ratio hCT/hAmylin funct. [2]	hCTR funct. EC50 [2] [nM]	Ratio hCT/hAmylin funct. [3] [ratio]	hAmylin-R funct. EC50 [3] [nM]	hCTR funct. EC50 [4] [nM]	Ratio hCT/hAmylin binding [5]
B1	0.175	7.4	1.29				
B2	0.433	23.1	10				
B3				6	0.222	1.32	
B4				10.2	0.088	0.899	
B5							26
B6				17	0.594	10.1	
B7				17	0.116	1.97	
